Usually stoichiometry N stands for the number of molecules, sites or subunits per partner or assembly.

The values that follow come from paper PMC6056229, “Cryo-EM structure of the polycystin 2-l1 ion channel” (eLife, 2018).

This data set deals with the molecule itself. As to the kind of experiment: cryo-EM structure; single particle cryo-EM of purified full-length polycystin 2-l1 in amphipol PMAL-C8, HKN buffer (HEPES 50, KCl 150, NaCl 50, CaCl2 5 mM; pH 7.5), C4 symmetry imposed, 3.3 Å.

B1: human polycystic kidney disease 2-like 1 (polycystin 2-l1) ion channel (natural protein, UniProt Q9P0L9 1-805, looked up)
chain: MNAVGSPEGQELQKLGSGAWDNPAYSGPPSPHGTLRVCTISSTGPLQPQPKKPEDEPQETAYRTQVSSCCLHICQGIRGLWGTTLTENTAENRELYIKTTLRELLVYIVFLVDICLLTYGMTSSSAYYYTKVMSELFLHTPSDTGVSFQAISSMADFWDFAQGPLLDSLYWTKWYNNQSLGHGSHSFIYYENMLLGVPRLRQLKVRNDSCVVHEDFREDILSCYDVYSPDKEEQLPFGPFNGTAWTYHSQDELGGFSHWGRLTSYSGGGYYLDLPGSRQGSAEALRALQEGLWLDRGTRVVFIDFSVYNANINLFCVLRLVVEFPATGGAIPSWQIRTVKLIRYVSNWDFFIVGCEVIFCVFIFYYVVEEILELHIHRLRYLSSIWNILDLVVILLSIVAVGFHIFRTLEVNRLMGKLLQQPNTYADFEFLAFWQTQYNNMNAVNLFFAWIKIFKYISFNKTMTQLSSTLARCAKDILGFAVMFFIVFFAYAQLGYLLFGTQVENFSTFIKCIFTQFRIILGDFDYNAIDNANRILGPAYFVTYVFFVFFVLLNMFLAIINDTYSEVKEELAGQKDELQLSDLLKQGYNKTLLRLRLRKERVSDVQKVLQGGEQEIQFEDFTNTLRELGHAEHEITELTATFTKFDRDGNRILDEKEQEKMRQDLEEERVALNTEIEKLGRSIVSSPQGKSGPEAARAGGWVSGEEFYMLTRRVLQLETVLEGVVSQIDAVGSKLKMLERKGWLAPSPGVKEQAIWKHPQPAPAVTPDPWGVQGGQESEVPYKREEEALEERRLSRGEIPTLQRS
modifications: glycan at N207; disulfide bond C210-C223
notes: polycystin 2-l1 (PKD2L1), human, full length; synthetic gene, not codon optimized; UniProt Q9P0L9; No cleavage of the MBP tag is described; fractions were found by western blot against MBP during the preparation for cryo-EM; The N terminus, the S4-S5 linker and the C terminus are not resolved in the map; also called PKD2L1; PC-2L1
Consider B1, for which the “stoichiometry N” value is 4.
